Test results taken from patent US20210139548A1 (published 2021).
*1 amine or outer side, *2 acyl side, *3 side chain or, on linkers, in order; H or OH if unused. Side-chain parts run from the residue outwards. The star is where a group is joined. C18 diacid = O=C(O)CCCCCCCCCCCCCCCCC(=O)*; γGlu = O=C(O)[C@H](CCC(=O)[*:2])N[*:1]; Isovaleryl = CC(C)CC(=O)*; AEEA = NCCOCCOCC(=O)O

Target: T1, human neuropeptide Y2 receptor (human, UniProt P49146 1-381)
T1 construct: whole, on cells; also called hNPY2 receptor; hNPY2-R
T1 sequence (looked up): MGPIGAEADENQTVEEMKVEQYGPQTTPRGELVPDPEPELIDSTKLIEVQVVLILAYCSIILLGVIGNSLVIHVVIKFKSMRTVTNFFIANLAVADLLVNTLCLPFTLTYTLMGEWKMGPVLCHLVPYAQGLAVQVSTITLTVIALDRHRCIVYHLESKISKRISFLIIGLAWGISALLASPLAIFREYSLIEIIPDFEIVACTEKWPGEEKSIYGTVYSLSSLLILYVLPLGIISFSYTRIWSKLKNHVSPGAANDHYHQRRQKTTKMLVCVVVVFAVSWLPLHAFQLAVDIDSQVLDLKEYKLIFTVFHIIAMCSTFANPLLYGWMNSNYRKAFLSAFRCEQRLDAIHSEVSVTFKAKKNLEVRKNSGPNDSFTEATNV
Assay: radioligand competition (125I-PYY(1-36)), hNPY2R membranes
Outline: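 Commercial human Y2 receptor membranes (0.5 μg protein/well) were incubated with peptide for 2 h at room temperature in 50 mM HEPES, 5 mM MgCl₂, 1 mM CaCl₂, pH 7.4, with 0.2% ovalbumin. Bound radioligand was separated on PEI-soaked GF/C filters and counted by scintillation, and IC₅₀ came from nonlinear sigmoidal regression.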

B1: Compound 196 (peptide)
peptide: Isovaleryl-APAK([AEEA-AEEA-γGlu-C18 diacid])PPEDAEPEELQRYYVSLRHYYNWLTRQRY-NH2
SMILES: CC(C)CC(=O)N[C@@H](C)C(=O)N1CCC[C@H]1C(=O)N[C@@H](C)C(=O)N[C@@H](CCCCNC(=O)COCCOCCNC(=O)COCCOCCNC(=O)CC[C@H](NC(=O)CCCCCCCCCCCCCCCCC(=O)O)C(=O)O)C(=O)N1CCC[C@H]1C(=O)N1CCC[C@H]1C(=O)N[C@@H](CCC(=O)O)C(=O)N[C@@H](CC(=O)O)C(=O)N[C@@H](C)C(=O)N[C@@H](CCC(=O)O)C(=O)N1CCC[C@H]1C(=O)N[C@@H](CCC(=O)O)C(=O)N[C@@H](CCC(=O)O)C(=O)N[C@@H](CC(C)C)C(=O)N[C@@H](CCC(N)=O)C(=O)N[C@@H](CCCNC(=N)N)C(=O)N[C@@H](Cc1ccc(O)cc1)C(=O)N[C@@H](Cc1ccc(O)cc1)C(=O)N[C@H](C(=O)N[C@@H](CO)C(=O)N[C@@H](CC(C)C)C(=O)N[C@@H](CCCNC(=N)N)C(=O)N[C@@H](Cc1c[nH]cn1)C(=O)N[C@@H](Cc1ccc(O)cc1)C(=O)N[C@@H](Cc1ccc(O)cc1)C(=O)N[C@@H](CC(N)=O)C(=O)N[C@@H](Cc1c[nH]c2ccccc12)C(=O)N[C@@H](CC(C)C)C(=O)N[C@H](C(=O)N[C@@H](CCCNC(=N)N)C(=O)N[C@@H](CCC(N)=O)C(=O)N[C@@H](CCCNC(=N)N)C(=O)N[C@@H](Cc1ccc(O)cc1)C(N)=O)[C@@H](C)O)C(C)C
Binder B1 has a Ki of 980 pM.

B2: Compound 197 (peptide)
peptide: Isovaleryl-APAK([AEEA-AEEA-γGlu-C18 diacid])PEADASPEELQRYYVELRHYYNWLTRQRY-NH2
SMILES: CC(C)CC(=O)N[C@@H](C)C(=O)N1CCC[C@H]1C(=O)N[C@@H](C)C(=O)N[C@@H](CCCCNC(=O)COCCOCCNC(=O)COCCOCCNC(=O)CC[C@H](NC(=O)CCCCCCCCCCCCCCCCC(=O)O)C(=O)O)C(=O)N1CCC[C@H]1C(=O)N[C@@H](CCC(=O)O)C(=O)N[C@@H](C)C(=O)N[C@@H](CC(=O)O)C(=O)N[C@@H](C)C(=O)N[C@@H](CO)C(=O)N1CCC[C@H]1C(=O)N[C@@H](CCC(=O)O)C(=O)N[C@@H](CCC(=O)O)C(=O)N[C@@H](CC(C)C)C(=O)N[C@@H](CCC(N)=O)C(=O)N[C@@H](CCCNC(=N)N)C(=O)N[C@@H](Cc1ccc(O)cc1)C(=O)N[C@@H](Cc1ccc(O)cc1)C(=O)N[C@H](C(=O)N[C@@H](CCC(=O)O)C(=O)N[C@@H](CC(C)C)C(=O)N[C@@H](CCCNC(=N)N)C(=O)N[C@@H](Cc1c[nH]cn1)C(=O)N[C@@H](Cc1ccc(O)cc1)C(=O)N[C@@H](Cc1ccc(O)cc1)C(=O)N[C@@H](CC(N)=O)C(=O)N[C@@H](Cc1c[nH]c2ccccc12)C(=O)N[C@@H](CC(C)C)C(=O)N[C@H](C(=O)N[C@@H](CCCNC(=N)N)C(=O)N[C@@H](CCC(N)=O)C(=O)N[C@@H](CCCNC(=N)N)C(=O)N[C@@H](Cc1ccc(O)cc1)C(N)=O)[C@@H](C)O)C(C)C
Binder B2 has a Ki of 870 pM.
